Results from patent publication US20150376275A1.

Legend:
[1] = molecular target: KIR (KIR2D receptors; KIR2DL1 and 2/3) on the patients' NK cells; experiment: receptor occupancy on patients' NK cells by flow cytometry after a single i.v. dose of 0.003 mg/kg (AML dose-escalation trial)
[2] = molecular target: KIR (KIR2D receptors; KIR2DL1 and 2/3) on the patients' NK cells; experiment: receptor occupancy on patients' NK cells by flow cytometry after a single i.v. dose of 0.0003 mg/kg (AML dose-escalation trial)

Substance: fully human anti-KIR2DL1, 2 and 3 monoclonal antibody 1-7F9
- KIR occupancy [1]: 90%
- KIR occupancy [2]: 50%
